For test [1], the target named is Cx43CT CT (Rattus norvegicus) (UniProt P08050). The conditions noted are these: cited from earlier work.
The next test addresses Cx43CT_(236-382) (rat) (UniProt P08050).

Drebrin, sequence (Q16643 2-649): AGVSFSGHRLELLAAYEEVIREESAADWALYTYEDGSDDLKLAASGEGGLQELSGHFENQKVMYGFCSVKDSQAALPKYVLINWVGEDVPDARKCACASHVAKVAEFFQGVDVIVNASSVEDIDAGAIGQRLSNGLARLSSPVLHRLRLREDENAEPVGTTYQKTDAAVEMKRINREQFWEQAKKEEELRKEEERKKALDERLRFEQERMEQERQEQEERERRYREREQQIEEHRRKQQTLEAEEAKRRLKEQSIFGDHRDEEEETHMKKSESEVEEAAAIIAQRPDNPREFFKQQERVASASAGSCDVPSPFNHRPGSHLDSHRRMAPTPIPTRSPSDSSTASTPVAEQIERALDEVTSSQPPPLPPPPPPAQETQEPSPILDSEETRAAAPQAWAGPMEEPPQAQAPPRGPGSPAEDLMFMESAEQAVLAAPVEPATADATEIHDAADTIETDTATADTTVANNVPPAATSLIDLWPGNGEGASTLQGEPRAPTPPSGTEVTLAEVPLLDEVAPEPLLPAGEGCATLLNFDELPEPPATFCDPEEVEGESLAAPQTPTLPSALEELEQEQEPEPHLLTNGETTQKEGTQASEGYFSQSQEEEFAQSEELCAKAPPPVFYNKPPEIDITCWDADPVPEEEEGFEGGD

Usually Kd stands for the equilibrium constant for the complex coming apart. With Drebrin (from UniProt Q16643), the Kd in test [1] was 300 µM.
For “calmodulin (from UniProt P0DP23 1-149) (natural protein)”, in the test with Cx43CT_(236-382) (rat), the inhibition of ERK2 phosphorylation of GST-Cx43CT (236-382) (in vitro kinase assay, Western blot with Cx43 pS279/S282 antibodies) in presence of CaM (~90% saturation) came to 30% and the inhibition of Src phosphorylation of GST-Cx43CT (236-382) (in vitro kinase assay, Western blot with Cx43 pY265 antibody) in presence of CaM (~90% saturation) was 90%.

(Values after paper PMC7602980.)
